{"source": "patent US20260242478A1", "about": "(published 2026)", "binders": {"B1": {"name": "Phage-2695 (peptide)", "peptide": "HWRMCVPTWMCHLD", "modifications": "cysteine pairing not given here; also: displayed on bacteriophage as fusion to pIII"}, "B2": {"name": "Phage-2684 (peptide)", "peptide": "SEAWCIPSWMCRGD", "modifications": "cysteine pairing not given here; also: fused to phage pIII (clonal phage display)", "notes": "Tested as clonal phage supernatant; also called Peptide-180 library clone"}, "B3": {"name": "Phage-2689 (peptide)", "peptide": "IKPLCSPPWMCSMY", "modifications": "cysteine pairing not given here; also: displayed on bacteriophage as fusion to pIII, fusion and linker not given here", "notes": "as for B2"}, "B4": {"name": "Phage-2685 (peptide)", "peptide": "PMKLCSPPWMCFYD", "modifications": "cysteine pairing not given here; also: displayed on bacteriophage as fusion to pIII, fusion and linker not given here", "notes": "as for B2"}, "B5": {"name": "Phage-2681 (peptide)", "peptide": "GEKWCTPPWMCMFQ", "modifications": "cysteine pairing not given here; also: displayed on bacteriophage as fusion to pIII, fusion and linker not given here", "notes": "as for B2"}, "B6": {"name": "Phage-2680 (peptide)", "peptide": "DMNWCSPPWMCFGF", "modifications": "cysteine pairing not given here; also: displayed on bacteriophage as fusion to pIII, fusion and linker not given here", "notes": "as for B2"}, "B7": {"name": "Phage-2686 (peptide)", "peptide": "QNIRCVPPWMCENL", "modifications": "cysteine pairing not given here; also: displayed on bacteriophage as fusion to pIII, fusion and linker not given here", "notes": "as for B2"}, "B8": {"name": "Phage-2683 (peptide)", "peptide": "EYAWCIPEWMCGWI", "modifications": "cysteine pairing not given here; also: displayed on bacteriophage as fusion to pIII, fusion and linker not given here", "notes": "as for B2"}, "B9": {"name": "Phage-2694 (peptide)", "peptide": "GEKWCTPLWMCEWY", "modifications": "cysteine pairing not given here; also: displayed on bacteriophage as fusion to pIII, fusion and linker not given here", "notes": "as for B2"}, "B10": {"name": "Phage-2693 (peptide)", "peptide": "MGNWCTPSWMCEGL", "modifications": "cysteine pairing not given here; also: displayed on bacteriophage as fusion to pIII, fusion and linker not given here", "notes": "as for B2"}, "B11": {"name": "Phage-2687 (peptide)", "peptide": "VHYWCIPAWMCNKS", "modifications": "cysteine pairing not given here; also: displayed on bacteriophage as fusion to pIII, fusion and linker not given here", "notes": "as for B2"}, "B12": {"name": "Phage-2691 (peptide)", "peptide": "IVKWCTPPWMCERP", "modifications": "cysteine pairing not given here; also: displayed on bacteriophage as fusion to pIII, fusion and linker not given here", "notes": "as for B2"}, "B13": {"name": "Phage-2682 (peptide)", "peptide": "DVKWCIPSWMCQDV", "modifications": "cysteine pairing not given here; also: displayed on bacteriophage as fusion to pIII, fusion and linker not given here", "notes": "as for B2"}, "B14": {"name": "Phage-2692 (peptide)", "peptide": "MEKWCIPQWMCEQF", "modifications": "cysteine pairing not given here; also: displayed on bacteriophage as fusion to pIII, fusion and linker not given here", "notes": "as for B2"}, "B15": {"name": "Phage-2688 (peptide)", "peptide": "EAHLCKPLWMCEFG", "modifications": "cysteine pairing not given here; also: displayed on bacteriophage as fusion to pIII, fusion and linker not given here", "notes": "as for B2"}, "B16": {"name": "Phage-2690 (peptide)", "peptide": "LVKWCTPTWMCVGM", "modifications": "cysteine pairing not given here; also: displayed on bacteriophage as fusion to pIII, fusion and linker not given here", "notes": "as for B2"}}, "note": "Where no end group is shown, it is not given here.", "data": [{"molecular_target": "T1, PSMA Fab (biotinylated (site not stated))", "T1 construct": "also called Anti-PSMA Fab; 006 PSMA Fab", "assay": "clonal phage ELISA; biotinylated PSMA Fab on neutravidin plate; bound phage detected with anti-M13-HRP", "values": [{"binder": "VVPRCTPPWMCLVS", "note": "[Phage-2629]", "Phage binding ELISA signal, Anti-PSMA Fab": 0.976}, {"binder": "WEKWCTPSGMCDAR", "note": "[Phage-2627]", "Phage binding ELISA signal, Anti-PSMA Fab": 0.982}, {"binder": "VTKLCIPEWMCASD (cysteine pairing not given here; also: displayed on phage as pIII fusion)", "note": "[Phage-2630]", "Phage binding ELISA signal, Anti-PSMA Fab": 0.975}, {"binder": "VMSWCVPAWMCETP", "note": "[Phage-2631]", "Phage binding ELISA signal, Anti-PSMA Fab": 0.973}, {"binder": "LNNWCTPLWMCQMF", "note": "[Phage-2628]", "Phage binding ELISA signal, Anti-PSMA Fab": 0.979}, {"binder": "VEMLCKPAWMCANQ (cysteine pairing not given here; also: displayed on phage as pIII fusion)", "note": "[Phage-2626]", "Phage binding ELISA signal, Anti-PSMA Fab": 0.986}, {"binder": "TPKWCTPPWMCQHG", "note": "[Phage-2623]", "Phage binding ELISA signal, Anti-PSMA Fab": 0.994}, {"binder": "MTQWCIPEWMCSEE", "note": "[Phage-2624]", "Phage binding ELISA signal, Anti-PSMA Fab": 0.99}, {"binder": "FHMWCTPAWMCADQ (cysteine pairing not given here; also: displayed on phage as pIII fusion)", "note": "[Phage-2622]", "Phage binding ELISA signal, Anti-PSMA Fab": 0.996}, {"binder": "THHWCIPAWMCEQD", "note": "[Phage-2633]", "Phage binding ELISA signal, Anti-PSMA Fab": 0.967}, {"binder": "AEKWCIPEWMCEQL", "note": "[Phage-2632]", "Phage binding ELISA signal, Anti-PSMA Fab": 0.972}, {"binder": "PETRCIPSWMCSGM", "note": "[Phage-2625]", "Phage binding ELISA signal, Anti-PSMA Fab": 0.989}]}, {"molecular_target": "T2, 006 PSMA Fab", "T2 construct": "also called Anti-PSMA Fab", "assay": "phage binding ELISA; biotinylated PSMA Fab on neutravidin plate pre-incubated with PSMA antigen as competitor, clonal phage supernatant, anti-M13 HRP detection", "protocol": "(§1) Clonal phage were harvested as crude supernatants and screened via standard ELISAs. […] Prior to the addition of clonal phage. wells were incubated with blocking buffer and PSMA antigen or blocking buffer alone. Without washing or aspirating, clonal phage supernatants were then added to the wells and incubated for a short time. Wells were then washed followed by detection of bound phage using a horse radish conjugated anti-M13 antibody.", "values": [{"binder": "EEMWCIPVWMCEHQ", "note": "[Phage-2696]", "Phage binding ELISA signal, Anti-PSMA Fab with PSMA antigen": 0.0935}, {"binder": "B1", "Phage binding ELISA signal, Anti-PSMA Fab with PSMA antigen": 0.15}, {"binder": "GSHWCEPLWMCSAF", "note": "[Phage-2699]", "Phage binding ELISA signal, Anti-PSMA Fab with PSMA antigen": 0.0853}, {"binder": "FVKWCTPSWMCESQ", "note": "[Phage-2697]", "Phage binding ELISA signal, Anti-PSMA Fab with PSMA antigen": 0.0785}, {"binder": "IEKWCTPPWMCESS", "note": "[Phage-2700]", "Phage binding ELISA signal, Anti-PSMA Fab with PSMA antigen": 0.104}, {"binder": "DNKMCIPVWMCERF", "note": "[Phage-2698]", "Phage binding ELISA signal, Anti-PSMA Fab with PSMA antigen": 0.0685}, {"binder": "QVPWCTPAWMCERA", "note": "[Phage-2702]", "Phage binding ELISA signal, Anti-PSMA Fab with PSMA antigen": 0.126}, {"binder": "DNMLCRPSWMCEGL", "note": "[Phage-2701]", "Phage binding ELISA signal, Anti-PSMA Fab with PSMA antigen": 0.0762}]}, {"molecular_target": "T1, PSMA Fab", "assay": "clonal phage ELISA; PSMA Fab wells pre-incubated with PSMA antigen as competitor; anti-M13-HRP detection", "protocol": "as §1", "values": [{"binder": "VVPRCTPPWMCLVS", "note": "[Phage-2629]", "Phage binding ELISA signal, Anti-PSMA Fab with PSMA antigen": 0.0785}, {"binder": "WEKWCTPSGMCDAR", "note": "[Phage-2627]", "Phage binding ELISA signal, Anti-PSMA Fab with PSMA antigen": 0.106}, {"binder": "VTKLCIPEWMCASD (cysteine pairing not given here; also: displayed on phage as pIII fusion)", "note": "[Phage-2630]", "Phage binding ELISA signal, Anti-PSMA Fab with PSMA antigen": 0.0961}, {"binder": "VMSWCVPAWMCETP", "note": "[Phage-2631]", "Phage binding ELISA signal, Anti-PSMA Fab with PSMA antigen": 0.0614}, {"binder": "LNNWCTPLWMCQMF", "note": "[Phage-2628]", "Phage binding ELISA signal, Anti-PSMA Fab with PSMA antigen": 0.201}, {"binder": "VEMLCKPAWMCANQ (cysteine pairing not given here; also: displayed on phage as pIII fusion)", "note": "[Phage-2626]", "Phage binding ELISA signal, Anti-PSMA Fab with PSMA antigen": 0.0829}, {"binder": "TPKWCTPPWMCQHG", "note": "[Phage-2623]", "Phage binding ELISA signal, Anti-PSMA Fab with PSMA antigen": 0.0728}, {"binder": "MTQWCIPEWMCSEE", "note": "[Phage-2624]", "Phage binding ELISA signal, Anti-PSMA Fab with PSMA antigen": 0.0648}, {"binder": "FHMWCTPAWMCADQ (cysteine pairing not given here; also: displayed on phage as pIII fusion)", "note": "[Phage-2622]", "Phage binding ELISA signal, Anti-PSMA Fab with PSMA antigen": 0.126}, {"binder": "THHWCIPAWMCEQD", "note": "[Phage-2633]", "Phage binding ELISA signal, Anti-PSMA Fab with PSMA antigen": 0.0809}, {"binder": "AEKWCIPEWMCEQL", "note": "[Phage-2632]", "Phage binding ELISA signal, Anti-PSMA Fab with PSMA antigen": 0.0717}, {"binder": "PETRCIPSWMCSGM", "note": "[Phage-2625]", "Phage binding ELISA signal, Anti-PSMA Fab with PSMA antigen": 0.0912}]}, {"molecular_target": "T2, 006 PSMA Fab", "assay": "phage binding ELISA; biotinylated PSMA Fab on neutravidin plate, clonal phage supernatant, anti-M13 HRP detection; blocking buffer alone;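 further: before phage were added, wells were preincubated with blocking buffer either containing PSMA antigen or without it, and phage were then added with no wash in between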", "protocol": "as §1", "values": [{"binder": "EEMWCIPVWMCEHQ", "note": "[Phage-2696]", "Phage binding ELISA signal, Anti-PSMA Fab": 0.829}, {"binder": "B1", "Phage binding ELISA signal, Anti-PSMA Fab": 0.83}, {"binder": "GSHWCEPLWMCSAF", "note": "[Phage-2699]", "Phage binding ELISA signal, Anti-PSMA Fab": 0.824}, {"binder": "FVKWCTPSWMCESQ", "note": "[Phage-2697]", "Phage binding ELISA signal, Anti-PSMA Fab": 0.828}, {"binder": "IEKWCTPPWMCESS", "note": "[Phage-2700]", "Phage binding ELISA signal, Anti-PSMA Fab": 0.824}, {"binder": "DNKMCIPVWMCERF", "note": "[Phage-2698]", "Phage binding ELISA signal, Anti-PSMA Fab": 0.824}, {"binder": "QVPWCTPAWMCERA", "note": "[Phage-2702]", "Phage binding ELISA signal, Anti-PSMA Fab": 0.814}, {"binder": "DNMLCRPSWMCEGL", "note": "[Phage-2701]", "Phage binding ELISA signal, Anti-PSMA Fab": 0.816}]}, {"molecular_target": "T3, PSMA Fab (006 PSMA Fab) (biotinylated (site not given))", "T3 construct": "also called Anti-PSMA Fab; anti-PSMA Fab", "assay": "clonal phage ELISA; biotinylated PSMA Fab on neutravidin plate, blocking buffer alone; anti-M13 HRP detection;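 further: crude clonal phage supernatants added without washing to wells pretreated with blocking buffer with or without PSMA antigen, short incubation, then washed before detecting bound phage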", "values": [{"binder": "B2", "Phage binding ELISA signal, Anti-PSMA Fab": 0.857}, {"binder": "B3", "Phage binding ELISA signal, Anti-PSMA Fab": 0.839}, {"binder": "B4", "Phage binding ELISA signal, Anti-PSMA Fab": 0.85}, {"binder": "B5", "Phage binding ELISA signal, Anti-PSMA Fab": 0.861}, {"binder": "B6", "Phage binding ELISA signal, Anti-PSMA Fab": 0.873}, {"binder": "B7", "Phage binding ELISA signal, Anti-PSMA Fab": 0.844}, {"binder": "B8", "Phage binding ELISA signal, Anti-PSMA Fab": 0.858}, {"binder": "B9", "Phage binding ELISA signal, Anti-PSMA Fab": 0.832}, {"binder": "B10", "Phage binding ELISA signal, Anti-PSMA Fab": 0.833}, {"binder": "B11", "Phage binding ELISA signal, Anti-PSMA Fab": 0.841}, {"binder": "B12", "Phage binding ELISA signal, Anti-PSMA Fab": 0.834}, {"binder": "B13", "Phage binding ELISA signal, Anti-PSMA Fab": 0.859}, {"binder": "B14", "Phage binding ELISA signal, Anti-PSMA Fab": 0.834}, {"binder": "B15", "Phage binding ELISA signal, Anti-PSMA Fab": 0.84}, {"binder": "B16", "Phage binding ELISA signal, Anti-PSMA Fab": 0.837}]}]}
